In the supplement of paper PMC10724198:
± gives the standard deviation of the averaged measurements.

Assays:
[1] = test system: Saccharomyces cerevisiae; test: protein stability index of tFT-peptide fusion (C-terminal peptide) (PSI (0-1 scale)); higher = more stable (slower turnover)
Description: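 MPS profiling in S. cerevisiae of the tFT-X12 degron library: putative degron peptides plus stable controls, 12 aa, fused to the C-terminus of a sfGFP-mCherry timer. Cells are FACS-sorted into 8 mCherry/sfGFP bins and deep-sequenced. PSI runs from 0 (unstable) to 1 (stable). Backgrounds are wild type, das1Δ and doa10Δ at 30 °C, and wild type, das1Δ, cdc34-1 and cdc53-1 at 37 °C; 2-3 technical replicates each.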

[2] = test system: Saccharomyces cerevisiae; test: as above; settings: genetic background: wild type; temperature: 30 C
[3] = genetic background: cdc34-1, temperature: 37 C
[4] = genetic background: cdc53-1, temperature: 37 C
[5] = genetic background: das1 deletion, temperature: 30 C
[6] = genetic background: das1 deletion, temperature: 37 C
[7] = genetic background: doa10 deletion, temperature: 30 C
[8] = genetic background: wild type, temperature: 30 C
[9] = genetic background: wild type, temperature: 37 C
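Further: PSI is a weighted mean of sequencing reads over stability bins, variants kept only with over 10 reads, mCherry proximal and sfGFP distal, peptide attached via GGGS linker.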

| Sequence | protein stability index [1, 3] | protein stability index [1, 4] | protein stability index [1, 5] | protein stability index [1, 6] | protein stability index [1, 7] | protein stability index [1, 8] | protein stability index [1, 9] | protein stability index [2] |
| --- | --- | --- | --- | --- | --- | --- | --- | --- |
| EGGGGRFWVCVG | 0.676 ± 0.044 | 0.732 ± 0.012 | 0.631 ± 0.0097 | 0.748 ± 0.014 | 0.258 ± 0.0033 | 0.298 ± 0.034 | 0.596 ± 0.018 | 0.425 ± 0.028 |
| EKHRRYAITKFI | 0.666 ± 0.019 | 0.694 ± 0.052 | 0.659 ± 0.027 | 0.732 ± 0.025 | 0.155 ± 0.0053 | 0.196 ± 0.058 | 0.407 ± 0.1 | 0.28 ± 0.043 |
| EKKNQTAYNKTV | 0.691 ± 0.035 | 0.71 ± 0.023 | 0.644 ± 0.013 | 0.707 ± 0.022 | 0.149 ± 0.021 | 0.176 ± 0.028 | 0.365 ± 0.0059 | 0.39 ± 0.018 |
| EKTKTKRERKIN | 0.576 ± 0.0019 | 0.696 ± 0.008 | 0.626 ± 0.045 | 0.715 ± 0.036 | 0.165 ± 0.0048 | 0.191 ± 0.015 | 0.384 ± 0.0062 | 0.312 ± 0.028 |
| ELNERRKRLVTN | 0.623 ± 0.052 | 0.737 ± 0.01 | 0.6615 ± 0.0035 | 0.718 ± 0.0088 | 0.13 ± 0.021 | 0.142 ± 0.012 | 0.268 ± 0.033 | 0.304 ± 0.011 |
| ERNERKYKIKIT | 0.699 ± 0.018 | 0.724 ± 0.035 | 0.609 ± 0.042 | 0.715 ± 0.026 | 0.179 ± 0.013 | 0.239 ± 0.037 | 0.461 ± 0.034 | 0.374 ± 0.041 |
| ESCFGMAIFCVT | 0.526 ± 0.012 | 0.571 ± 0.011 | 0.37 ± 0.03 | 0.5841 ± 0.0045 | 0.301 ± 0.012 | 0.334 ± 0.03 | 0.525 ± 0.01 | 0.466 ± 0.024 |
| ESCIFLMWLTVL | 0.177 ± 0.013 | 0.273 ± 0.024 | 0.222 ± 0.032 | 0.379 ± 0.0044 | 0.0814 ± 0.021 | 0.0868 ± 0.012 | 0.0936 ± 0.013 | 0.136 ± 0.0054 |
| ESFIKFALYIVN | 0.557 ± 0.052 | 0.604 ± 0.0067 | 0.435 ± 0.023 | 0.621 ± 0.014 | 0.348 ± 0.013 | 0.358 ± 0.036 | 0.5099 ± 0.00084 | 0.419 ± 0.0082 |
| EVVFHVFLVGLV | 0.314 ± 0.015 | 0.451 ± 0.015 | 0.292 ± 0.035 | 0.512 ± 0.018 | 0.203 ± 0.012 | 0.274 ± 0.013 | 0.464 ± 0.0058 | 0.362 ± 0.0059 |
| FALPPSLLLLSA | 0.544 ± 0.019 | 0.557 ± 0.013 | 0.442 ± 0.027 | 0.5917 ± 0.0017 | 0.418 ± 0.0085 | 0.449 ± 0.016 | 0.55962 ± 0.00044 | 0.501 ± 0.026 |
| FCCLIGYIWYGW | 0.45071 ± 0.00045 | 0.5083 ± 0.00082 | 0.392 ± 0.041 | 0.527 ± 0.013 | 0.344 ± 0.0071 | 0.363 ± 0.011 | 0.514 ± 0.039 | 0.488 ± 0.019 |
| FCFLLLSWAFWV | 0.155 ± 0.026 | 0.205 ± 0.0084 | 0.171 ± 0.03 | 0.27279 ± 7.6e-05 | 0.0977 ± 0.011 | 0.103 ± 0.026 | 0.1757 ± 0.00047 | 0.159 ± 0.048 |
| FCFVRGLLFLFF | 0.476 ± 0.0094 | 0.574 ± 0.065 | 0.383 ± 0.035 | 0.5423 ± 0.0025 | 0.386 ± 0.013 | 0.36 ± 0.034 | 0.506 ± 0.023 | 0.442 ± 0.06 |
| FCIYLCLSTSIT | 0.0795 ± 0.0063 | 0.221 ± 0.0083 | 0.14 ± 0.036 | 0.306 ± 0.025 | 0.119 ± 0.0062 | 0.129 ± 0.027 | 0.247 ± 0.0029 | 0.374 ± 0.084 |
| FCSLLVLLFFGV | 0.395 ± 0.042 | 0.4792 ± 0.0038 | 0.334 ± 0.018 | 0.473 ± 0.0052 | 0.323 ± 0.025 | 0.337 ± 0.022 | 0.466 ± 0.013 | 0.39365 ± 4e-05 |
| FELSVSVFQSVV | 0.318 ± 0.048 | 0.388 ± 0.0039 | 0.374 ± 0.023 | 0.3368 ± 0.002 | 0.409 ± 0.048 | 0.384 ± 0.044 | 0.318 ± 0.0051 | 0.338 ± 0.031 |
| FERVEYEVLGIG | 0.35 ± 0.0065 | 0.441 ± 0.037 | 0.394 ± 0.0079 | 0.449 ± 0.017 | 0.395 ± 0.012 | 0.38 ± 0.017 | 0.44 ± 0.021 | 0.415 ± 0.014 |
| FFASAAVHLVTC | 0.513 ± 0.01 | 0.521 ± 0.032 | 0.435 ± 0.02 | 0.559 ± 0.014 | 0.312 ± 0.0063 | 0.34 ± 0.016 | 0.491 ± 0.0037 | 0.4533 ± 0.0034 |
| FFLLLVGFSVLG | 0.223 ± 0.071 | 0.265 ± 0.012 | 0.238 ± 0.024 | 0.421 ± 0.024 | 0.224 ± 0.024 | 0.222 ± 0.021 | 0.373 ± 0.0038 | 0.349 ± 0.0064 |

| Sequence | protein stability index [1, 3] | protein stability index [1, 4] | protein stability index [1, 5] | protein stability index [1, 6] | protein stability index [1, 7] | protein stability index [1, 8] | protein stability index [1, 9] | protein stability index [2] |
| --- | --- | --- | --- | --- | --- | --- | --- | --- |
| FFLLTCFLLPSV | 0.44 ± 0.03 | 0.512 ± 0.013 | 0.346 ± 0.036 | 0.526 ± 0.014 | 0.328 ± 0.013 | 0.341 ± 0.024 | 0.514 ± 0.014 | 0.441 ± 0.015 |
| FFLSFRLFSILL | 0.304 ± 0.033 | 0.359 ± 0.021 | 0.342 ± 0.021 | 0.413 ± 0.014 | 0.412 ± 0.027 | 0.292 ± 0.017 | 0.368 ± 0.011 | 0.3114 ± 0.0026 |
| FFLVILSWWVGE | 0.182 ± 0.023 | 0.225 ± 0.056 | 0.197 ± 0.036 | 0.345 ± 0.028 | 0.185 ± 0.0019 | 0.205 ± 0.052 | 0.31 ± 0.017 | 0.242 ± 0.017 |
| FFMLWCRVLLRL | 0.144 ± 0.026 | 0.102 ± 0.017 | 0.215 ± 0.014 | 0.278 ± 0.0028 | 0.18536 ± 0.00012 | 0.145 ± 0.031 | 0.167 ± 0.0071 | 0.2187 ± 0.002 |
| FFVFPFGLLFLS | 0.504 ± 0.058 | 0.515 ± 0.013 | 0.433 ± 0.023 | 0.583 ± 0.011 | 0.2525 ± 0.0007 | 0.232 ± 0.02 | 0.385 ± 0.0085 | 0.342 ± 0.0054 |
| FFVKGFRLLVFQ | 0.454 ± 0.039 | 0.481 ± 0.013 | 0.421 ± 0.04 | 0.573 ± 0.014 | 0.461 ± 0.019 | 0.384 ± 0.014 | 0.516 ± 0.046 | 0.47 ± 0.015 |
| FIGVLVYICREG | 0.1903 ± 0.0018 | 0.359 ± 0.084 | 0.254 ± 0.017 | 0.44 ± 0.024 | 0.187 ± 0.0062 | 0.228 ± 0.037 | 0.373 ± 0.018 | 0.329 ± 0.032 |
| FITFLVFVGFFL | 0.393 ± 0.06 | 0.421 ± 0.0078 | 0.313 ± 0.022 | 0.495 ± 0.026 | 0.263 ± 0.0094 | 0.295 ± 0.026 | 0.448 ± 0.0071 | 0.355 ± 0.034 |
| FKKIKGKIEKKN | 0.736 ± 0.021 | 0.897 ± 0.023 | 0.609 ± 0.042 | 0.726 ± 0.05 | 0.339 ± 0.061 | 0.336 ± 0.012 | 0.448 ± 0.0082 | 0.481 ± 0.023 |
| FKWVSRIRLLDA | 0.485 ± 0.014 | 0.566 ± 0.049 | 0.51 ± 0.023 | 0.483 ± 0.0055 | 0.24 ± 0.028 | 0.246 ± 0.016 | 0.411 ± 0.017 | 0.316 ± 0.027 |
| FKYRVPLVGVVK | 0.30503 ± 3.5e-05 | 0.317 ± 0.033 | 0.245 ± 0.029 | 0.43316 ± 0.00012 | 0.203 ± 0.018 | 0.25 ± 0.02 | 0.3897 ± 0.00038 | 0.347 ± 0.0072 |
| FLDYLLFIFFFF | 0.431 ± 0.054 | 0.519 ± 0.041 | 0.419 ± 0.032 | 0.522 ± 0.0072 | 0.464 ± 0.0094 | 0.392 ± 0.037 | 0.473 ± 0.039 | 0.415 ± 0.008 |
| FLFQYLCIISSL | 0.0463 ± 0.007 | 0.166 ± 0.037 | 0.133 ± 0.046 | 0.233 ± 0.023 | 0.0866 ± 0.028 | 0.0716 ± 0.026 | 0.161 ± 0.013 | 0.217 ± 0.037 |
| FLGPMRVLVSSV | 0.568 ± 0.03 | 0.606 ± 0.032 | 0.424 ± 0.03 | 0.6003 ± 0.0019 | 0.401 ± 0.015 | 0.425 ± 0.026 | 0.565 ± 0.0044 | 0.522 ± 0.073 |
| FLLCRVFVLLRS | 0.043 ± 0.019 | 0.0441 ± 0.015 | 0.13 ± 0.037 | 0.215 ± 0.0095 | 0.1414 ± 0.0013 | 0.102 ± 0.018 | 0.125 ± 0.038 | 0.163 ± 0.045 |
| FLLPWLRPVFFF | 0.522 ± 0.056 | 0.607 ± 0.055 | 0.567 ± 0.013 | 0.69 ± 0.0074 | 0.219 ± 0.0046 | 0.218 ± 0.024 | 0.369 ± 0.029 | 0.293 ± 0.011 |
| FLLVGLLIVGCG | 0.175 ± 0.0045 | 0.272 ± 0.0014 | 0.206 ± 0.027 | 0.349 ± 0.018 | 0.166 ± 0.025 | 0.206 ± 0.026 | 0.334 ± 0.0082 | 0.225 ± 0.12 |
| FLSRVVLVVLLV | 0.258 ± 0.018 | 0.333 ± 0.006 | 0.245 ± 0.029 | 0.43 ± 0.02 | 0.196 ± 0.015 | 0.215 ± 0.034 | 0.339 ± 0.029 | 0.288 ± 0.026 |
| FLVIILFFLYMR | 0.144 ± 0.043 | 0.0943 ± 0.015 | 0.176 ± 0.042 | 0.232 ± 0.023 | 0.398 ± 0.017 | 0.184 ± 0.041 | 0.185 ± 0.02 | 0.209 ± 0.011 |
